According to patent US20250222125A1, “Anti-FGFR2b Antibodies, Conjugates and Methods of Use” (BeiGene, Ltd., priority 2024, published 2025):
“Also recorded” adds a separate entry of the source.

Experiments:
[1] = clinical trial, terminated early; cited from earlier work
human FGFR2b [2] = molecular target: T1, human FGFR2b (Homo sapiens, UniProt P21802); test: ELISA protein binding to human FGFR2b (Example 4); details: coated protein
Experimental: (§1) The binding affinity and specificity of purified anti-FGFR2b antibodies were determined by ELISA and FACS. […] After incubation and washing, the plates were developed with HRP substrate and absorbance was measured. […] After washing twice with FACS buffer, diluted Alexa Fluor 647 goat anti-human IgG secondary antibody was added and incubated with cells for 30 minutes at 4° C. in the dark. After washing twice with FACS buffer, cells were resuspended with FACS buffer and read using a Becton Dickinson LSR FortessaTM cell analyzer. Non-specific binding of these antibodies was evaluated by FACS binding against parental 293T blank cells. Titration curves were generated using a sigmoidal dose-response of nonlinear fit from GraphPadTM Software by Dotmatics.

Human FGFR2c [3] = molecular target: T2, Human FGFR2c (Homo sapiens, UniProt P21802); test: ELISA protein binding to human FGFR2c (Example 4); details: coated protein
T2 sequence (P21802 22-821): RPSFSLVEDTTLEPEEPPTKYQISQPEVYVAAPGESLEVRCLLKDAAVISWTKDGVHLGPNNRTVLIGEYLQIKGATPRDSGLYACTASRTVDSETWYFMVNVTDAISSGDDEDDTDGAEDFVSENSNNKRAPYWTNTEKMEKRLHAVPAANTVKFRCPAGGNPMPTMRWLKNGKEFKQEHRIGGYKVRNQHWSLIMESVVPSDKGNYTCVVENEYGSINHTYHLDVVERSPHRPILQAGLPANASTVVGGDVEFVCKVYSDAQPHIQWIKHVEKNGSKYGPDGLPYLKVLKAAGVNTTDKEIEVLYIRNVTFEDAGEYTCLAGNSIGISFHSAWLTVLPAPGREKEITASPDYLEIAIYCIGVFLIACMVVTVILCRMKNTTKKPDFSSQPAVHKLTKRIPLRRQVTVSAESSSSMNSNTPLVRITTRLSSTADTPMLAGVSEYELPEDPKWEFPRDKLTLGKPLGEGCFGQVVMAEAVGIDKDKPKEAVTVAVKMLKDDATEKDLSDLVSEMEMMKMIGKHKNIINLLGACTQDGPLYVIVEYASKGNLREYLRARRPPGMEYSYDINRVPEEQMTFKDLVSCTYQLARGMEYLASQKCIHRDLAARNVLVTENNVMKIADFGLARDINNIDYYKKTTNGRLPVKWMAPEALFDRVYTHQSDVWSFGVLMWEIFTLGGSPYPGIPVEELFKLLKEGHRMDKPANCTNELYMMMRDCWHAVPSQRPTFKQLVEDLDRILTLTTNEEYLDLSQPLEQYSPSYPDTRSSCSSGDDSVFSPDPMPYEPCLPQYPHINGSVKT
Experimental: as §1

Human FGFR2b OE cells = molecular target: T3, Human FGFR2b OE cells (Homo sapiens, UniProt P21802); test: FACS cellular binding, human FGFR2b OE cells (Example 4)
T3 construct: expressed in transfected cells; host or cells: 293T
T3 sequence (P21802 22-822 isoform P21802-3 limits assumed): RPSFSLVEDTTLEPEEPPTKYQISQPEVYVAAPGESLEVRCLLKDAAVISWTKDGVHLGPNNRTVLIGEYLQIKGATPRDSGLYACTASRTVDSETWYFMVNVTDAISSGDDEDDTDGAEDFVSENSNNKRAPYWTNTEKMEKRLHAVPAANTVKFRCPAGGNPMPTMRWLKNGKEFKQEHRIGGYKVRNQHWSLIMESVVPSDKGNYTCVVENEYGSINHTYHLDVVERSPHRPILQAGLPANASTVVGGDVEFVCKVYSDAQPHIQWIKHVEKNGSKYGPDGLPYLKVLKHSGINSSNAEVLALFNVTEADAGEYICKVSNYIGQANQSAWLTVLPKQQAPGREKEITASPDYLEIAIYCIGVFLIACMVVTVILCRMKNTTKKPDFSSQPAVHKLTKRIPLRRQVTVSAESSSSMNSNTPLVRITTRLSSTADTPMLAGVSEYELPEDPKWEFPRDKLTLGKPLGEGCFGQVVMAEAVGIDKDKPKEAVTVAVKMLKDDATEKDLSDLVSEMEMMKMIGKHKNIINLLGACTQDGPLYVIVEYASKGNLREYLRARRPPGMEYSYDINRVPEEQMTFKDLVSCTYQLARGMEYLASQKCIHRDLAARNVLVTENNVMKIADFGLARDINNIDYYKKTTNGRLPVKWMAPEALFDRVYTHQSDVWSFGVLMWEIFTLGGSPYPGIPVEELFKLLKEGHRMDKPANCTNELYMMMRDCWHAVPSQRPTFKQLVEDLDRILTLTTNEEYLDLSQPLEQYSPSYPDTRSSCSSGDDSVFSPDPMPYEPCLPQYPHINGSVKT
Experimental: as §1

Murine FGFR2b OE cells = molecular target: T4, Murine FGFR2b OE cells (Mus musculus, UniProt P21803); test: FACS cellular binding, murine FGFR2b OE cells (Example 4)
T4 construct: expressed in transfected cells; host or cells: 293T
T4 sequence (P21803 22-707 isoform P21803-2 limits assumed): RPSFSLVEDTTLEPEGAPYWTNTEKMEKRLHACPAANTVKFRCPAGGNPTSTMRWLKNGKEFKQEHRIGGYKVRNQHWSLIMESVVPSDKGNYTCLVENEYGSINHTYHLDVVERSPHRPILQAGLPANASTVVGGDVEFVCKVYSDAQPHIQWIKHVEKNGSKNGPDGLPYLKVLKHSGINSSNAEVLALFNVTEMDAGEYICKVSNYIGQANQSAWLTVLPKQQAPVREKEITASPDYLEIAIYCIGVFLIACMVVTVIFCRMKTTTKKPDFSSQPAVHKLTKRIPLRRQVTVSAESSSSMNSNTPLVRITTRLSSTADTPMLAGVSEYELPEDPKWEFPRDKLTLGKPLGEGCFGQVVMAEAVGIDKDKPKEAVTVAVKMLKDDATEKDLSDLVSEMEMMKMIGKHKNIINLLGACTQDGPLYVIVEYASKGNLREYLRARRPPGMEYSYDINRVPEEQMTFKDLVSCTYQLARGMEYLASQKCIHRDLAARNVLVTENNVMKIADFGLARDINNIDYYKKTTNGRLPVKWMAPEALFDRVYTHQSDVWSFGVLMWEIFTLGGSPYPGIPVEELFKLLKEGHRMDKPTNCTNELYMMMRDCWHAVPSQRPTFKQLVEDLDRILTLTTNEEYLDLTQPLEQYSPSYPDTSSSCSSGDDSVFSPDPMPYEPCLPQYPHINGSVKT
Experimental: as §1

Human FGFR2c OE cells = Human FGFR2c OE cells (Homo sapiens, UniProt P21802); test: FACS cellular binding, human FGFR2c OE cells (Example 4)
Human FGFR2c OE cells, sequence (P21802 22-821): as the sequence (P21802 22-821) above
Experimental: as §1

293T blank cells = test: FACS non-specific binding, parental 293T blank cells (Example 4)
Experimental: as §1

human FGFR2b [4] = molecular target: T1, human FGFR2b; test: SPR affinity determination, human FGFR2b (Example 9); assay type: binding; details: for Kd: kd/ka
Experimental: (§2) For affinity determination, antibodies were captured by anti-human Fc antibodies, and used in the affinity assay based on surface plasmon resonance (SPR) technology. SPR signals were analyzed to calculate the association rates (ka) and dissociation rates (kd) by using the one-to-one Langmuir binding model (BIA Evaluation Software, GE Life Sciences). The equilibrium dissociation constant (KD) was calculated as the ratio of kd/ka. Rmax represents the maximal feasible SPR signal generated by an interaction between a ligand-analyte pair and is represented in response units (RU). BGAh9239 and BGA9179 show similar binding profiles to human FGFR2b and cyno FGFR2b, and are similar to their parental antibodies BGAm1823 and BGAm1371, respectively.

Cyno FGFR2b [5] = test: SPR affinity determination, cyno FGFR2b (Example 9); assay type: binding
Experimental: as §2

human FGFR2b [6] = molecular target: T1, human FGFR2b; test: FACS binding to native FGFR2b on Expi293 cells, human FGFR2b (Example 10); details: Expi293 cells overexpressing human FGFR2b
Experimental: (§3) To evaluate the binding activity of anti-FGFR2b antibodies to native FGFR2b on living cells, Expi293 cells were engineered to overexpress human FGFR2b, cyno FGFR2b, mouse FGFR2b, or human FGFR2c. Expi293 cells expressing antigens were seeded in 96-well plates, and were incubated with serially diluted anti-FGFR2b antibodies. Goat anti-human IgG [Alexa Fluor® 647] […] The change of mean fluorescent intensity (MFI) of humanized candidates BGAh9239 and BGAh9179 was measured by flow cytometry. EC50 values for dose-dependent binding to native human FGFR2b, cyno FGFR2b, mouse FGFR2b, and human FGFR2c were determined using sigmoidal dose-response curves of nonlinear fit from GraphPad Prism™.

Mouse FGFR2b = molecular target: T5, Mouse FGFR2b (Mus musculus, UniProt P21803); test: FACS binding on Expi293 cells, mouse FGFR2b (Example 10); details: Expi293 cells overexpressing mouse FGFR2b
T5 construct: expressed in transfected cells; host or cells: Expi293
T5 sequence (P21803 22-707 isoform P21803-2 limits assumed): as the sequence (P21803 22-707 isoform P21803-2 limits assumed) above
Experimental: as §3

Human FGFR2c [7] = molecular target: T2, Human FGFR2c; test: FACS binding on Expi293 cells, human FGFR2c (Example 10); details: for Emax (MFI): Expi293 cells overexpressing human FGFR2c
Experimental: as §3

human FGFR2b [8] = molecular target: T1, human FGFR2b; test: ELISA binding to recombinant human FGFR2b (Example 11)
Cyno FGFR2b [9] = test: ELISA binding to recombinant cyno FGFR2b (Example 11)
Human FGFR2c [10] = molecular target: T2, Human FGFR2c; test: ELISA binding to recombinant human FGFR2c (Example 11); details: for Emax (A450): human FGFR2c; for binding to human FGFR2c: in words
BaF3_hFGFR2b OE cells = test: Ligand-induced proliferation inhibition assay in BaF3_hFGFR2b OE cells; assay type: cell-based; details: antibody 10 μg/ml, heparin 5 μg/ml, 72 hours
Experimental: The inhibition activity of antibody on ligand-induced cell proliferation was evaluated in an FGFR2b engineered BaF3 cell line system (BaF3_hFGFR2b OE). BaF3 cells are dependent on interleukin-3 (IL-3) for growth. The BaF3 system allows for testing of kinases and kinase inhibitors. Some protein kinases can render BaF3 cells to be independent of IL-3, whereas kinase inhibitors antagonize this effect. Cells were seeded in 96-well plates at 30,000 cells/well in RPMI-1640 medium containing 10% fetal bovine serum. Anti-FGFR2b antibodies at a concentration of 10 μg/ml were added to the assay plates. Recombinant human FGF7 or FGF10 protein (40 ng/ml) in the presence of heparin (5 μg/ml) was added to the assay plates. The plates were incubated at 37° C., 5% CO2, 95% humidity in an incubator for 72 hours. Following incubation, 50 μl Cell Titer Glo reagent was added to each well and the plates were mixed for 1 min and then incubated at RT for 10 min. Luminescence signals were detected and recorded.
The Ba/F3 system is used to investigate downstream oncogenic signaling pathways and the susceptibility of driver variants to therapeutics. Driver-addicted Ba/F3 cells die when the driver-engaged signaling pathway is inhibited, and this effect can be rescued by re-introduction of […].
FIGS. 6 and 7 show the results of Ba/F3 proliferation assays. The net growth on Ba/F3 cells overexpressing FGFR2b is reported after treatment with anti-FGFR2b antibodies of the present disclosure. Normal Ba/F3 cells die shortly after withdrawal of exogenous […]. […] Comparator BGA2311 binds at the N-terminus and is not considered to be a ligand blocker. Thus, BGAm1371 may partially block the FGFR2b signaling pathway, such as the signaling pathway mediated by FGF7.

[11] = system: phosphorylated FGFR in SNU-16 cells; test: Inhibition of FGFR2 signaling in SNU-16 cells (Western blot of pFGFR); assay type: cell-based; details: antibody 10 μg/ml, FGF7 10 ng/ml, 2 hours
Experimental: Inhibition of the FGFR2 signaling pathway by the humanized antibodies was investigated. SNU-16 cells were grown in RPMI-1640 medium with 10% FBS, collected and washed twice with free medium and then seeded in 12-well plates at 1.5E6 cells/well in serum-free RPMI-1640. The plates were incubated at 37° C., 5% CO2, and 95% humidity in an incubator overnight. Anti-FGFR2b antibodies at a concentration of 10 μg/ml were added to the assay plates. Recombinant human FGF7 or FGF10 protein (10 ng/ml) in the presence of heparin (5 μg/ml) was added to the assay plates. The plates were incubated in a 37° C., 5% CO2, 95% humidity incubator for 2 hours. Following 2 hours incubation, cells were collected and washed twice with cold PBS. NP40 lysis buffer containing 1×PMSF and 1× Protease plus phosphatase inhibitors were added to the cell pellets. The mixture was pipetted up and down to suspend the pellet. The mixture was inverted gently and each placed for 10 minutes on ice, for a total of 30 minutes. The mixture was centrifuged at 12000× rpm for 10 minutes to pellet the cell debris. The supernatant was transferred to a new tube to quantify total protein concentration by BCA Kit. The protein samples were then split and stored at −80° C. for further Western blotting to detect the expression of pFGFR and total FGFR2.
Western blotting procedure: The completely thawed protein samples were mixed with 4×SDS loading buffer and were heated for 10 min at 37° C. Then the mixtures were centrifuged at ˜3500×rpm for 5 min. Equal amounts of proteins were loaded into an SDS-PAGE gel, whereafter proteins were transferred to PVDF membranes using iBlot. The membranes were then subjected to Western blotting analysis, focusing on phosphorylated FGFR and total FGFR2.

[12] = molecular target: T6, soluble human FGFR2b proteins (Homo sapiens, UniProt P21802); test: SPR binding kinetics (Biacore 8K, Example 5); details: room temperature
T6 construct: soluble human FGFR2b proteins (his tag, in-house generated); His tag; made in house
T6 sequence (P21802 22-378 isoform P21802-3 limits assumed): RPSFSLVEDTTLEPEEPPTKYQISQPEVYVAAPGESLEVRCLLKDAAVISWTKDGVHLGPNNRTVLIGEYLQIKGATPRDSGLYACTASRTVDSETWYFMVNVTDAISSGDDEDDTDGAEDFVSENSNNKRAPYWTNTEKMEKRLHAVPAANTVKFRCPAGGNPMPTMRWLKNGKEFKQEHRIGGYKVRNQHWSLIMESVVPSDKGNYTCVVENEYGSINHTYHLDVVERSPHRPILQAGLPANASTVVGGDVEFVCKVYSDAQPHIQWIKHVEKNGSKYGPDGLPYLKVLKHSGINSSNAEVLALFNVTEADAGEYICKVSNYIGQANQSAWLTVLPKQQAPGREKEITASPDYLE
Experimental: The binding affinity and kinetics of purified anti-FGFR2b antibodies were determined by surface plasmon resonance (Biacore 8K, GE Life Sciences) at room temperature. Briefly, mouse anti-human IgG Fc antibody was immobilized via amine coupling onto a activated CM5 biosensor chip (Cat. No. BR100530, GE Life Sciences). Purified monoclonal antibody candidates were flowed over the chip surface and captured by anti-human IgG antibody. Then a serial dilution of soluble human FGFR2b proteins (his tag, in-house generated) were injected over the antibodies captured surface and changes in surface plasmon resonance signals were analyzed to calculate the association rates (kon) and dissociation rates (koff) by using the one-to-one Langmuir binding model (BIA Evaluation Software, GE Life Sciences). The equilibrium dissociation constant (KD) was calculated as the ratio koff/kon.

T1 sequence (P21802 22-822 isoform P21802-3 limits assumed): as the sequence (P21802 22-822 isoform P21802-3 limits assumed) above

| Molecule | EC50 (human FGFR2b [2]) [nM] | Human FGFR2b binding Emax(OD450) (human FGFR2b [2]) | Human FGFR2c binding Emax(OD450) (Human FGFR2c [3]) | EC50 (Human FGFR2b OE cells) [nM] | EC50 (Murine FGFR2b OE cells) [nM] | Human FGFR2c OE cells binding Emax (Human FGFR2c OE cells) [MFI] | 293T blank cells binding Emax (293T blank cells) [MFI] | Rmax (human FGFR2b [4]) [RU] | ka (human FGFR2b [4]) [M^−1S^−1] | kd (human FGFR2b [4]) [S^−1] | Kd (human FGFR2b [4]) [nM] | ka (Cyno FGFR2b [5]) [M^−1S^−1] | kd (Cyno FGFR2b [5]) [S^−1] | EC50 (human FGFR2b [6]) [nM] | Emax (MFI) (human FGFR2b [6]) | EC50 (Mouse FGFR2b) [nM] | Emax (MFI) (Mouse FGFR2b) | Emax (MFI) (Human FGFR2c [7]) | EC50 (human FGFR2b [8]) [nM] | Emax (A450) (human FGFR2b [8]) | other results |
| --- | --- | --- | --- | --- | --- | --- | --- | --- | --- | --- | --- | --- | --- | --- | --- | --- | --- | --- | --- | --- | --- |
| Aprutumab ixadotin: FGFR2 antibody conjugated to auristatin (conjugate, chains of the INN, looked up, auristatin payload conjugate, FGFR2 antibody conjugated to auristatin) VH: EVQLLESGGGLVQPGGSLRLSCAASGFTFSSYAMSWVRQAPGKGLEWVSAISGSGTSTYYADSVKGRFTISRDNSKNTLYLQMNSLRAEDTAVYYCARVRYNWNHGDWFDPWGQGTLVTVSS VL: QSVLTQPPSASGTPGQRVTISCSGSSSNIGNNYVSWYQQLPGTAPKLLIYENYNRPAGVPDRFSGSKSGTSASLAISGLRSEDEADYYCSSWDDSLNYWVFGGGTKLTVL | – | – | – | – | – | – | – | – | – | – | – | – | – | – | – | – | – | – | – | – | tolerability in clinical testing [1]: poorly tolerated |
| BGAm1371: parental murine anti-FGFR2b antibody (parental mouse clone); VH SEQ ID NO: 32, VL SEQ ID NO: 34 (antibody, V domains shown, Synthetic: VH AA; Synthetic: VL AA) VH: QVQLKQSGAELVKPGASVKLSCTASGFNIKDTYIHWVKQRPEQGLEWIGRIDPANGNTMFASEFQGKATITAYTSSNTAYMQLSSLTSGDTAVYYCARSKIHYDYDEGFAYWGQGTLVTVSS VL: NIVLTQSPPSLAVSLGQRATVSCRASESVDDYGYSFLHWYQQKPGQPPKLLIYRASNLESGIPARFSGSGSRTDFTLTINPVETDDVATYYCQQSNQNPRTFGGGTKLEIK | 0.19 | 3.35 | 0.07 | 1.25 | 1.78 | 33 | 28 | 96.3 | 7.29E+04 | 1.19E−03 | 16.3 | 7.97E+04 | 1.25E−03 | 1.5 | 3052664 | 3.5 | 4984598 | 23051 | 0.0309 | 3.013 | Emax (A450) (Cyno FGFR2b [9]): 3.018 A450; Emax (A450) (Human FGFR2c [10]): 0.204 A450; binding to human FGFR2c (Human FGFR2c [10]): no detectable binding; inhibition of FGF7-induced BaF3_hFGFR2b cell proliferation (BaF3_hFGFR2b OE cells; FGF7 40 ng/ml): ten times less potent compared to BGA1421 and BGAm1823; also recorded: weaker blocking than comparator BGA1421; inhibition of FGF10-induced BaF3_hFGFR2b cell proliferation (BaF3_hFGFR2b OE cells; FGF10 40 ng/ml): did not inhibit the net growth; FGF7-induced FGFR phosphorylation [11]: weakly inhibited |
| BGAh9239: humanized anti-FGFR2b IgG1 antibody from murine BGAm1823; VH SEQ ID NO: 9, VL SEQ ID NO: 10 (antibody, V domains shown, Synthetic: VH AA; Synthetic: VL AA) VH: QVQLVQSGAEVKKPGSSVKVSCKASGYTFSIYWLNWVRQAPGQGLEWMGQIYPENADTNYSGKFKGRVTITADKSTSTAYMELSSLRSEDTAVYFCARGGFDYWGQGTLVTVSS VL: DIQMTQSPSSLSASVGDRVTITCRASENIYSNLAWYQQKPGKAPKLLIYTATNLAEGVPSRFSGSGSGTDFTLTISSLQPEDFATYYCQHFYGILYTFGQGTRLEIK | 0.26 | 3.37 | 0.07 | 1.84 | 1.59 | 36 | 31 | 80.9 | 8.05E+04 | 3.00E−03 | 37.3 | 7.99E+04 | 2.72E−03 | 2.4 | 3082608 | 2.67 | 5098781 | 23848 | 0.031 | 2.945 | ka ([12]; antibody captured): 76600 M⁻¹ s⁻¹; kd ([12]; antibody captured): 0.00189 s⁻¹; Kd ([12]; koff/kon): 24.7 nM; binding to native human FGFR2c (Human FGFR2c [7]; living Expi293 cells, in words): no detectable binding; Emax (A450) (Cyno FGFR2b [9]): 2.931 A450; Emax (A450) (Human FGFR2c [10]): 0.130 A450; binding to human FGFR2c (Human FGFR2c [10]): no detectable binding |
